The record followed here is publication PMC3515076.

In the data set the target is T1, RIG-I (ΔCARDs 1-238) (human, UniProt O95786 239-925, del1-238).
T1 sequence: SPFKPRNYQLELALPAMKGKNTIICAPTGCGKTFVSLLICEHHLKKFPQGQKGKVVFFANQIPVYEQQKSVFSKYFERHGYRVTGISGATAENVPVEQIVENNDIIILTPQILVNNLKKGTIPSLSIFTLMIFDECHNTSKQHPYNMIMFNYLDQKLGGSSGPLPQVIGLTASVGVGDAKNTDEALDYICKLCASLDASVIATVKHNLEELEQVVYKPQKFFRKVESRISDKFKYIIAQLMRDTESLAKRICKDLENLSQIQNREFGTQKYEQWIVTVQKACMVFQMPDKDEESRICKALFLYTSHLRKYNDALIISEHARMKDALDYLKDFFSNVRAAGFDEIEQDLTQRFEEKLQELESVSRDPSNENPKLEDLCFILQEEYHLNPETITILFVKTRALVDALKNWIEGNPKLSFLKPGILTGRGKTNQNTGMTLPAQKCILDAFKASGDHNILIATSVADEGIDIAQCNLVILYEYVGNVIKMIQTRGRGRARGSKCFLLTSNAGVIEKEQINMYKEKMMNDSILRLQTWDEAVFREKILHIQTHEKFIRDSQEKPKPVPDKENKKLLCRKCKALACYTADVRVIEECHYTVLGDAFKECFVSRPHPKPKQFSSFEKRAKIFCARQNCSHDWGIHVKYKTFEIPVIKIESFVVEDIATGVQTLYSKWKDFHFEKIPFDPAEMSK
In words: X-ray crystallography.

Consider GGCGCGGCUUCGGCCGCGCC (structured_RNA, 5' triphosphate) [5'ppp8L], for which the binding result is “binds”.
